Source: US20220056131A1 (MacroGenics, published 2022)
Positions count from the first letter of the chain named. Numbers in names are those of the source.

Columns and labels:
[1] = target: T1, epidermal growth factor receptor (EGFR) on A498 kidney cancer cells or A431 epidermoid carcinoma cells (UniProt P00533 25-1210, limits assumed); test: flow cytometry, binding to A498 kidney cancer cells, MFI
T1 construct: whole, on cells

[2] = target: T2, soluble cynomolgus monkey CD3 (cynomolgus monkey); test: bispecific binding ELISA with soluble cynomolgus CD3 and soluble human B7H3 (sheet title 'sCynCD3-shB7H3 Bispecific Binding Elisa'); format not described, OD450
T2 chain: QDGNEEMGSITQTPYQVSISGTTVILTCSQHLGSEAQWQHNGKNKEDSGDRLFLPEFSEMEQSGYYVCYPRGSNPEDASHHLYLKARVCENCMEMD

[3] = target: T2, soluble cynomolgus monkey CD3; test: capture ELISA, plate coated with 1 µg/ml soluble cynomolgus monkey CD3, OD450
[4] = target: soluble human CD3 (extracellular domain of human CD3) (human); test: capture ELISA, plate coated with 0.5 µg/ml shCD3, OD450
[5] = target: soluble human CD3 (extracellular domain of human CD3) (human); test: capture ELISA, plate coated with 1 µg/ml shCD3, OD450
[6] = target: T2, soluble cynomolgus monkey CD3; test: BIACORE SPR, capture with anti-EK antibodies, bivalent fit
[7] = target: soluble human CD3 (extracellular domain of human CD3) (human); test: as above
[8] = target: soluble human CD3 (extracellular domain of human CD3) (human); test: capture ELISA, plate coated with 1 µg/ml soluble human CD3, OD450

soluble human CD3 (extracellular domain of human CD3) (human), sequence (P07766 23-126, chain 1 of 2): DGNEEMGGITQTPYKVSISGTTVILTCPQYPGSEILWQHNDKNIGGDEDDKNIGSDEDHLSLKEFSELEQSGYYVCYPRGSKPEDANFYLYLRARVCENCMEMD
soluble human CD3 (extracellular domain of human CD3) (human), sequence (P04234 22-105, chain 2 of 2, further chain): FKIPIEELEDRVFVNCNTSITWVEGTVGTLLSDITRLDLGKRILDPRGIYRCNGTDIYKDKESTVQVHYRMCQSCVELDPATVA

B1: 4420 x huXR32 (bispecific antibody)
4420VL-hXR32VH-E coil: DVVMTQTPFSLPVSLGDQASISCRSSQSLVHSNGNTYLRWYLQKPGQSPKVLIYKVSNRFSGVPDRFSGSGSGTDFTLKISRVEAEDLGVYFCSQSTHVPWTFGGGTKLEIKGGGSGGGGEVQLVESGGGLVQPGGSLRLSCAASGFTFNTYAMNWVRQAPGKGLEWVARIRSKYNNYATYYADSVKDRFTISRDDSKNSLYLQMNSLKTEDTAVYYCVRHGNFGNSYVSWFAYWGQGTLVTVSSGGCGGGEVAALEKEVAALEKEVAALEKEVAALEK
hXR32VL-4420VH-K coil: QAVVTQEPSLTVSPGGTVTLTCRSSTGAVTTSNYANWVQQKPGQAPRGLIGGTNKRAPWTPARFSGSLLGGKAALTITGAQAEDEADYYCALWYSNLWVFGGGTKLTVLGGGGSGGGGEVKLDETGGGLVQPGRPMKLSCVASGFTFSDYWMNWVRQSPEKGLEWVAQIRNKPYNYETYYSDSVKGRFTISRDDSKSSVYLQMNNLRVEDMGIYYCTGSYYGMDYWGQGTSVTVSSGGCGGGKVAALKEKVAALKEKVAALKEKVAALKE
B1: no binding [1].

B2: B7-H3-2-h-mAb2 DART diabody (bispecific antibody)
chain 1: DIQLTQSPSFLSASVGDRVTITCKASQNVDTNVAWYQQKPGKAPKALIYSASYRYSGVPSRFSGSGSGTDFTLTISSLQPEDFATYYCQQYNNYPFTFGQGTKLEIKGGGGSGGGGEVQLVESGGGLVQPGGSLRLSCAASGFTFNTYAMNWVRQAPGKGLEWVARIRSKYNNYATYYADSVKDRFTISRDDSKNSLYLQMNSLKTEDTAVYYCVRHGNFGNSYVSWFAYWGQGTLVTVSSGGCGGGEVAALEKEVAALEKEVAALEKEVAALEK
chain 2: QAVVTQEPSLTVSPGGTVTLTCRSSTGAVTTSNYANWVQQKPGQAPRGLIGGTNKRAPWTPARFSGSLLGGKAALTITGAQAEDEADYYCALWYSNLWVFGGGTKLTVLGGGGSGGGGEVQLVESGGGLVQPGGSLRLSCAASGFTFSSFGMHWVRQAPGKGLEWVAYISSDSSAIYYADTVKGRFTISRDNAKNSLYLQMNSLRDEDTAVYYCGRGRENIYYGSRLDYWGQGTTVTVSSGGCGGGKVAALKEKVAALKEKVAALKEKVAALKE
notes: Two-chain diabody, hBRCA84D (anti-B7-H3) x h-mAb2
In the case of B2, the “EC50 (read off the curve)” value [2] is reported as roughly 0.03 µg/mL.

B3: chimeric variant of mAb2 antibody (ch-mAb2) (antibody, V domains shown)
VH: EVKLLESGGGLVQPKGSLKLSCAASGFTFNTYAMNWVRQAPGKGLEWVARIRSKYNNYATYYADSVKDRFTISRDDSQSILYLQMNNLKTEDTAMYYCVRHGNFGNSYVSWFAYWGQGTLVTVSA
VL: QAVVTQESALTTSPGETVTLTCRSSTGAVTTSNYANWVQEKPDHLFTGLIGGTNKRAPGVPARFSGSLIGDKAALTITGAQTEDEAIYFCALWYSNLWVFGGGTKLTVLG
notes: also called chimeric mAb2; mAb2 chimeric antibody
B3 was tested, and the “EC50 (read off the curve)” value [3] was roughly 0.03 µg/mL, the EC50 (read off the curve) [4] was 0.03 µg/mL and the EC50 (read off the curve) [5] was 0.03 µg/mL. For the same binder, the Kd [6] was 14.4 nM, the kon [6] was 160000 M⁻¹ s⁻¹ and the Kd [7] was 14.7 nM. It also gave a kon [7] of 170000 M⁻¹ s⁻¹ and an EC50 (read off the curve) [8] of 0.03 µg/mL.

B4: antibody having an h-mAb2 VL-6 light chain and the heavy chain of the mAb2 chimeric antibody (antibody, V domains shown)
VH: B3 VH
VL: QAVVTQEPSLTVSPGGTVTLTCRSSTGAVTTSNYANWVQQKPGQAPRGLIGGTNKRAPWTPARFSGSLLGGKAALTITGAQAEDEADYYCALWYSNLWVFGGGTKLTVLG
notes: also called h-mAb2 VL-6 light chain antibody (Kabat F36V and T46G)
With B4 the “EC50 (read off the curve)” value [3] was roughly 0.03 µg/mL, the EC50 (read off the curve) [4] was 0.04 µg/mL and the EC50 (read off the curve) [8] was 0.03 µg/mL.

B5: h-mAb2VH-8 HC / ch-mAb2 LC (antibody, V domains shown)
VH: B3 VH with K3Q, L5V, K15G, K19R, Q78K, S79N, I80S, N87S, M95V, A125S
VL: B3 VL
notes: also called ch-mAb2 LC / h-mAb2VH-8 HC
In the case of B5, the “EC50 (read off the curve)” value [3] is reported as roughly 0.03 µg/mL and the EC50 (read off the curve) [8] is reported as 0.03 µg/mL.

B6: humanized mAb2 (h-mAb2) (antibody, V domains shown)
VH: B3 VH with K3Q, L5V, K15G, K19R, Q78K, S79N, I80S, N87S, M95V, A125S
VL: B4 VL
notes: also called humanized variant of mAb2
In the case of B6, the “EC50 (read off the curve)” value [3] is reported as roughly 0.03 µg/mL, the Kd [6] is reported as 24.1 nM and the kon [6] is reported as 170000 M⁻¹ s⁻¹. It also gave a Kd [7] of 20 nM, a kon [7] of 190000 M⁻¹ s⁻¹ and an EC50 (read off the curve) [8] of 0.03 µg/mL.

B7: antibody having an h-mAb2 VL-8 light chain and the heavy chain of the mAb2 chimeric antibody (antibody, V domains shown)
VH: B3 VH
VL: B4 VL with Q40E
B7 gave an EC50 (read off the curve) [4] of 0.04 µg/mL and an EC50 (read off the curve) [5] of 0.03 µg/mL.
